Measurements: patent publication EP4491629A1 (Université de Lorraine, dated 2025)
Substitutions are numbered along the chain they refer to. Names may count otherwise.

B1: Cricetulus griseus galectin-1 (wild-type), produced from the pCarONE vector (other)
chain: ACGLVASNLNLKPGECLKVRGEVAPDAKSFVLNLGKDSNNLCLHFNPRFNAHGDANTIVCNSKDNGAWGTEHREPAFPFQPGSTVEVCITFDQADLTIKLPDGHEFKFPNRLNMEAINYMAADGDFKIKCVAFE
notes: Lectin; recombinant from E. coli; The entries are about self-association (homodimer, printed as 2x16.6 kDa); also called Gal1 wild-type; Gal1; not shown: spacer arm and TEV protease cleavage site encoded by pCarONE
B2: E16K mutant of Cricetulus griseus galectin-1 (other)
chain: B1 chain with E15K
notes: Recombinant from E. coli; tested for self-association by size exclusion chromatography; also called Gal1 E16K; Gal1 mutant E16K; not shown: spacer arm and TEV protease cleavage site encoded by pCarONEE16K
B3: C131E mutant of Cricetulus griseus galectin-1 (other)
chain: ACGLVASNLNLKPGECLKVRGEVAPDAKSFVLNLGKDSNNLCLHFNPRFNAHGDANTIVCNSKDNGAWGTEHREPAFPFQPGSTVEVCITFDQADLTIKLPDGHEFKFPNRLNMEAINYMAADGDFKIKEVAFEELSSGVDLGTENLYFQS
notes: also called Gal1 C131E; Gal1 mutant C131E

Molecular target: the molecule itself
Assay: size exclusion chromatography (Superdex 75); self-association

Row | Protein | binding result
1 | B1 | binds
2 | B2 | binds
3 | B3 | no binding
